Legend:
Type in all cases: cell-based
[1] = molecular target: T1, serotonin 5HT1A receptor (Homo sapiens, UniProt P08908); assay: CPRG assay, MMY11 cells expressing 5-HT1A receptor plus Gα subunit; design: key: weak activation insufficient to carry out curve-fitting was detected; NC: no coupling was detected
T1 construct: expressed in transfected cells; host or cells: Saccharomyces cerevisiae strains MMY9 and MMY11, plasmid pDT-PGK-5-HT1A
T1 sequence (P08908 1-422): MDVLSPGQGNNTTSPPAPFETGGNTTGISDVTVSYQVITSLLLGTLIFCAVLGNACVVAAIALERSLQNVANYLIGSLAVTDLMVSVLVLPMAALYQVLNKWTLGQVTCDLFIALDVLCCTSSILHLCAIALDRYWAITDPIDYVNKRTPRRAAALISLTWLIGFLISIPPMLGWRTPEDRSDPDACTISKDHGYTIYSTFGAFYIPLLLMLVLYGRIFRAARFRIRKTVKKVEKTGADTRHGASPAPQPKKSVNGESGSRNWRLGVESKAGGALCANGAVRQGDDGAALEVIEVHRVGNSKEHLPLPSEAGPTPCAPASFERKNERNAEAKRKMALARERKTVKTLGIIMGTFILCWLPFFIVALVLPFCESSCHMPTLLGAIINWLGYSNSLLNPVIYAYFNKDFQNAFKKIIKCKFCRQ
Description: (§1) Assay for combined FUS1-lacZ and FUS1-HIS3 Expression. In vivo assays of reporter gene induction (CPRG assays) were carried out by suspending cells to 0.02 OD600 in 200 μl SC-glucose (2%) lacking tryptophan, uracil and histidine. This medium was supplemented with agonists, and additionally 10 mM 3-aminotriazole and the β-galactosidase (lacZ) substrate chlorophenolred-β-D-galactopyranoside (CPRG; Boehringer) to a concentration of 0.1 mg/ml. To visualise the colour change reaction, the medium was buffered to pH 7 with 0.1 M sodium phosphate. The assay was conducted in a 96-well microtitre plate format. Plates were incubated for 24 hours without agitation, and absorbance at 570 nm was determined using a Victor microtitre plate reader (Wallac). EC50 values (+/−standard error) were estimated by curve-fitting, using the Robosage software package.
(§2) MMY11 was used in an experiment in which cells were transformed with pairs of plasmids as before, one to express a Gα subunit and the other a receptor expression construct. […] Where pheromone response pathway activation was detected, the agonist concentration required to yield a half-maximal response (EC50+/−standard error; all values in nM except where otherwise indicated) was determined by curve-fitting, and is shown in Table 4A. Where no coupling was detected, this is also indicated (NC).

[2] = molecular target: T2, serotonin 5HT1D receptor (Homo sapiens, UniProt P28221); assay: CPRG assay, MMY11 cells expressing 5-HT1D receptor plus Gα subunit; design: key: weak activation insufficient to carry out curve-fitting was detected; NC: no coupling was detected
T2 construct: expressed in transfected cells; host or cells: Saccharomyces cerevisiae strain MMY11, plasmid pDT-PGK-5-HT1D
Description: as §1, §2

[3] = molecular target: T1, serotonin 5HT1A receptor; assay: CPRG assay, MMY9 cells expressing 5-HT1A receptor plus Gα subunit; design: key to coupling class where no EC50 could be fitted: weak activation insufficient to carry out curve-fitting was detected; NC: no coupling was detected
Description: as §1
This experiment illustrates that, for certain receptors, the efficiency of coupling to the yeast pheromone response pathway can be enhanced by creating chimeras between yeast and mammalian Gα subunits. […] Agonist-dependent activation of FUS1-lacZ was determined by incubating cells in medium supplemented with the chromogenic, cell-permeant β-galacosidase (lacZ) substrate, chlorophenolred-β-D-galactopyranoside (CPRG; Boehringer Mannheim). […]

T2 sequence (P28221 whole entry): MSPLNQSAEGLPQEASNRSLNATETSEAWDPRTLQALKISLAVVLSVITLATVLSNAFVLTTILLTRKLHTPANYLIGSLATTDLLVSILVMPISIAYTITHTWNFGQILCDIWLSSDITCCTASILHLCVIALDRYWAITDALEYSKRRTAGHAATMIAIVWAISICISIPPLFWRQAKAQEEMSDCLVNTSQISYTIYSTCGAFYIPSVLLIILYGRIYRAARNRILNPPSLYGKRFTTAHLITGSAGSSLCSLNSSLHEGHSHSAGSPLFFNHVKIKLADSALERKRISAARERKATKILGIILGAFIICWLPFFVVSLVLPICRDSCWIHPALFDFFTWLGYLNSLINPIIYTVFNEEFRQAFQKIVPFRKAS

B1: Gpa1p: endogenous yeast Gα subunit, product of the GPA1 gene (protein, UniProt P08539 2-472, looked up)
Guanine nucleotide-binding …: GCTVSTQTIGDESDPFLQNKRANDVIEQSLQLEKQRDKNEIKLLLLGAGESGKSTVLKQLKLLHQGGFSHQERLQYAQVIWADAIQSMKILIIQARKLGIQLDCDDPINNKDLFACKRILLKAKALDYINASVAGGSDFLNDYVLKYSERYETRRRVQSTGRAKAAFDEDGNISNVKSDTDRDAETVTQNEDADRNNSSRINLQDICKDLNQEGDDQMFVRKTSREIQGQNRRNLIHEDIAKAIKQLWNNDKGIKQCFARSNEFQLEGSAAYYFDNIEKFASPNYVCTDEDILKGRIKTTGITETEFNIGSSKFKVLDAGGQRSERKKWIHCFEGITAVLFVLAMSEYDQMLFEDERVNRMHESIMLFDTLLNSKWFKDTPFILFLNKIDLFEEKVKSMPIRKYFPDYQGRVGDAEAGLKYFEKIFLSLNKTNKPIYVKRTCATDTQTMKFVLSAVTDLIIQQNLKKIGII
With B1 the “coupling class where no EC50 could be fitted” value [1] was “weak”, the “coupling class where no EC50 could be fitted” value [2] was “NC” and the “agonist-dependent induction of FUS1-LacZ / coupling, in words” value [3] was “failed to signal”. For the same molecule, the “coupling class where no EC50 could be fitted” value [3] was “NC”.
